Laboratory results from patent CN106749661A (UNIV BEIJING, dated 2017).

T1: PSMP真核蛋白 (human, UniProt Q1L6U9 36-139)
T1 construct: mature; Eukaryotically expressed secreted PSMP; The expression construct and any tags are not described; also called 重组PSMP真核蛋白; PSMP分泌蛋白
T1 sequence (looked up): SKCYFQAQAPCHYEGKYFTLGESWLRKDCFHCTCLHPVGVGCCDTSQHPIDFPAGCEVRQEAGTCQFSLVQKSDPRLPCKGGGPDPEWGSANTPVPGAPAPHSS

T2: PC3细胞内源性PSMP蛋白 (human, UniProt Q1L6U9 36-139, limits assumed)
T2 construct: Detected by Western blot and by immunocytochemistry in PC3 cells
T2 sequence (looked up): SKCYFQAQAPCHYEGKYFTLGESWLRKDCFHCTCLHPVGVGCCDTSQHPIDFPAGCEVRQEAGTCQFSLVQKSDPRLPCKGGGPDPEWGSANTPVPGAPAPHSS

T3: PSMP蛋白 (human, UniProt Q1L6U9 36-139, limits assumed)
T3 sequence (looked up): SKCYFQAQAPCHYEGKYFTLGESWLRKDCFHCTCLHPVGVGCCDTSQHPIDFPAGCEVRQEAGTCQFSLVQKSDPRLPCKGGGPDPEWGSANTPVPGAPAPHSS


Experiments:
PSMP真核蛋白 = biological target: T1, PSMP真核蛋白; assay: ELISA
PC3细胞内源性PSMP蛋白 = biological target: T2, PC3细胞内源性PSMP蛋白; assay: Western blot of PC3 cells
PSMP蛋白 [1] = biological target: T3, PSMP蛋白; assay: cytometric bead array, rabbit polyclonal on beads, 3D5 at 5 μg/ml as detection antibody
PSMP蛋白 [2] = biological target: T3, PSMP蛋白; assay: ELISA with 293T expression supernatant

binding result (PSMP真核蛋白) | binding result (PC3细胞内源性PSMP蛋白) | binding result (PSMP蛋白 [1]) | binding result (PSMP蛋白 [2]) | Binder
binds | binds | binds |  | 抗PSMP的单克隆抗体3D5 (antibody, V domains shown, Mouse hybridoma antibody, heavy chain IgG1, light chain kappa, purified from ascites on Protein G Sepharose; also called 鼠单抗3D5; 3D5中和抗体) VH: EVQLQQSGPELVKPGASVKISCKASGYSFTGYFMNWVMQSHGKSLEWIGRINPYNGDTFYNQKFKGKATLTVDKSSSTAHMELRSLASEDSAVYYCARGGDGYYAFAYWGQGTLVTVSA VL: NIVMTQSPKSMSMSVGERVTLSCRASENVGTYVSWYQQKPEQSPKLLIYGASNRYTGVPDRFTGSGSATDFTLTISSVQAEDLADYHCGQSYSYMYTFGGGTKLEIKR
 |  |  | binds | 共转染含有3D5重链和轻链基因的质粒的293T上清中表达的抗体 (antibody, V domains shown, It was tested as culture supernatant) VH: EVQLQQSGPELVKPGASVKISCKASGYSFTGYFMNWVMQSHGKSLEWIGRINPYNGDTFYNQKFKGKATLTVDKSSSTAHMELRSLASEDSAVYYCARGGDGYYAFAYWGQGTLVTVSA VL: NIVMTQSPKSMSMSVGERVTLSCRASENVGTYVSWYQQKPEQSPKLLIYGASNRYTGVPDRFTGSGSATDFTLTISSVQAEDLADYHCGQSYSYMYTFGGGTKLEIKR
